# Laboratory results published in publication PMC13364712.
# Biological target: actin filaments (actin from Gallus gallus skeletal muscle) (Gallus gallus (chicken)), P68139
# Assay: co-sedimentation; 4 µM EGFP–SFM peptide with 0–200 µM actin filaments in F buffer, 1 h at room temperature, 100,000g for 30 min; pellet read by anti-EGFP western blot; one-site specific binding fit; apparent
binder,measurement,value
"RRSVGELRLLFEARCAAVAAAA (modifications not checked) [EGFP-tagged ITPKA SFM peptide, P23677 1-461]",Kd,2 µM
